Data set [1] deals with EBOV NP° core domain (NP 34-367) (Ebola virus (EBOV, formerly Zaire ebolavirus)) (UniProt P18272). The data set is described as follows: ITC. For orientation: Isothermal titration calorimetry measures the heat released or taken up as one component is titrated into another.
Data set [2] deals with the molecule itself. The data set is described as follows: SEC-MALS. (In gel filtration, larger molecules generally elute earlier.)
Data set [3] deals with the molecule itself. Put plainly: SEC-MALS. This is another data set of the same source.

Read-outs that look alike come from different tables or passages of the source.

Molecule “EBOV VP35 1-80 peptide (purified, wild type) (from UniProt Q05127 1-80) (domain or fragment)” registered a Kd in data set [1] of 1.1 nM.

B1: MBP-EBOV NP 1-739 (oligomeric, RNA-bound) (natural protein)
chain: MDSRPQKIWMAPSLTESDMDYHKILTAGLSVQQGIVRQRVIPVYQVNNLEEICQLIIQAFEAGVDFQESADSFLLMLCLHHAYQGDYKLFLESGAVKYLEGHGFRFEVKKRDGVKRLEELLPAVSSGKNIKRTLAAMPEEETTEANAGQFLSFASLFLPKLVVGEKACLEKVQRQIQVHAEQGLIQYPTAWQSVGHMMVIFRLMRTNFLIKFLLIHQGMHMVAGHDANDAVISNSVAQARFSGLLIVKTVLDHILQKTERGVRLHPLARTAKVKNEVNSFKAALSSLAKHGEYAPFARLLNLSGVNNLEHGLFPQLSAIALGVATAHGSTLAGVNVGEQYQQLREAATEAEKQLQQYAESRELDHLGLDDQEKKILMNFHQKKNEISFQQTNAMVTLRKERLAKLTEAITAASLPKTSGHYDDDDDIPFPGPINDDDNPGHQDDDPTDSQDTTIPDVVVDPDDGSYGEYQSYSENGMNAPDDLVLFDLDEDDEDTKPVPNRSTKGGQQKNSQKGQHIEGRQTQSRPIQNVPGPHRTIHHASAPLTDNDRRNEPSGSTSPRMLTPINEEADPLDDADDETSSLPPLESDDEEQDRDGTSNRTPTVAPPAPVYRDHSEKKELPQDEQQDQDHTQEARNQDSDNTQSEHSFEEMYRHILRSQGPFDAVLYYHMMKDEPVVFSTSDGKEYTYPDSLEEEYPPWLTEKEAMNEENRFVTLDGQQFYWPVMNHKNKFMAILQHHQ
As to B1, the binding result in the data set “SEC-MALS [2]” is reported as “binds”.

B2: MBP-EBOV NP 1-450 (oligomeric, RNA-bound) (domain or fragment)
chain: MDSRPQKIWMAPSLTESDMDYHKILTAGLSVQQGIVRQRVIPVYQVNNLEEICQLIIQAFEAGVDFQESADSFLLMLCLHHAYQGDYKLFLESGAVKYLEGHGFRFEVKKRDGVKRLEELLPAVSSGKNIKRTLAAMPEEETTEANAGQFLSFASLFLPKLVVGEKACLEKVQRQIQVHAEQGLIQYPTAWQSVGHMMVIFRLMRTNFLIKFLLIHQGMHMVAGHDANDAVISNSVAQARFSGLLIVKTVLDHILQKTERGVRLHPLARTAKVKNEVNSFKAALSSLAKHGEYAPFARLLNLSGVNNLEHGLFPQLSAIALGVATAHGSTLAGVNVGEQYQQLREAATEAEKQLQQYAESRELDHLGLDDQEKKILMNFHQKKNEISFQQTNAMVTLRKERLAKLTEAITAASLPKTSGHYDDDDDIPFPGPINDDDNPGHQDDDPTDSQ
Consider B2, for which the binding result in “SEC-MALS [3]” is listed as “binds”.

B3: EBOV NP 1-450 released by TEV protease from the cleavable fusion (RNA-free) (domain or fragment)
chain: B2 chain
B3: in “SEC-MALS [3]”, the binding result is given as “binds”.

B4: EBOV NP 1-450 (co-expressed with His-VP35 1-80) (domain or fragment)
chain: B2 chain
Take B4: the binding result in “SEC-MALS [3]” is reported as “binds”.

B5: EBOV NP 1-450 (oligomeric, RNA-bound, purified directly from E. coli) (domain or fragment)
chain: B2 chain
On to B5, for which the binding result in the data set “SEC-MALS [3]” is on record as “binds”.

B6: MBP-EBOV NP 19-389 (domain or fragment)
chain: MDYHKILTAGLSVQQGIVRQRVIPVYQVNNLEEICQLIIQAFEAGVDFQESADSFLLMLCLHHAYQGDYKLFLESGAVKYLEGHGFRFEVKKRDGVKRLEELLPAVSSGKNIKRTLAAMPEEETTEANAGQFLSFASLFLPKLVVGEKACLEKVQRQIQVHAEQGLIQYPTAWQSVGHMMVIFRLMRTNFLIKFLLIHQGMHMVAGHDANDAVISNSVAQARFSGLLIVKTVLDHILQKTERGVRLHPLARTAKVKNEVNSFKAALSSLAKHGEYAPFARLLNLSGVNNLEHGLFPQLSAIALGVATAHGSTLAGVNVGEQYQQLREAATEAEKQLQQYAESRELDHLGLDDQEKKILMNFHQKKNEISFQ
For the molecule B6, the binding result in “SEC-MALS [3]” is reported as “binds”.

One may read the Kd as the free concentration of one partner at which half of the binding sites on the other are occupied at equilibrium, for simple one-to-one binding. Low readings indicate higher affinity, high ones lower affinity.

Source of the values: publication PMC4500542 (Cell reports, 2015).
